Test results taken from US5595736.
Numbering of substitutions follows the chain as printed.

What was measured:
[1] = target: Lysine (Lys)-Plasminogen
[2] = target: plasminogen

B1: mt-PA6-D (enzyme)
chain: SYQGNSDCYFGQGSAYRGTHSLTESGASCLPWNGSMILIGKVYTAQNPSAQALGLGKHNYCRNPDGDAKPWCHVLKNRRLTWEYCDVPSCSTCGLRQYSQPQFRIKGGLFADIASHPWQAAIFAKHRRSPGERFLCGGILISSCWILSAAHCFQERFPPHHLTVILGRTYRVVPGEEEQKFEVEKYIVHKEFDDDTYDNDIALLQLKSDSSRCAQESSVVRTVCLPPADLQLPDWTECELSGYGKHEALSPFYSERLKEAHVRLYPSSRCTSQHLLNRTVTDNMLCAGDTRSGGPQANLHDACQGDSGGPLVCLNDGRMTLVGIISWGLGCGQKDVPGVYTKVTNYLDWIRDNMRP
modifications: diglycosylated: alternate glycosylation consensus sequence at the amino acids surrounding position 33 (equivalent to amino acid 205 of t-PA) in Kringle 2, and the glycosylation consensus sequence within the Serine Protease domain
B1 showed a ratio of the rates of Lys- to Glu-plasminogen activation in the presence of fibrin stimulator (Lys/Glu) (Lys/Glu (ratio of rates), single chain) [1] of 3.3 and a plasminogenolytic activity (PAU/mg) (PAU/mg (single chain)) [2] of 189.

B2: mt-PA9 (enzyme)
chain: SYQDTRATCYEDQGISYRGTWSTAESGAECTNWNSSALAQKPYSGRRPDAIRLGLGNHNYCRNPDGDAKPWCHVLKNRRLTWEYCDVPSCSTCGLRQYSQPQFRIKGGLFADIASHPWQAAIFAKHRRSPGERFLCGGILISSCWILSAAHCFQERFPPHHLTVILGRTYRVVPGEEEQKFEVEKYIVHKEFDDDTYDNDIALLQLKSDSSRCAQESSVVRTVCLPPADLQLPDWTECELSGYGKHEALSPFYSERLKEAHVRLYPSSRCTSQHLLNRTVTDNMLCAGDTRSGGPQANLHDACQGDSGGPLVCLNDGRMTLVGIISWGLGCGQKDVPGVYTKVTNYLDWIRDNMRP
modifications: diglycosylated: obligatory glycosylation site located in the first exon of Kringle 1, and the site in the Serine Protease domain
With B2 the ratio of the rates of Lys- to Glu-plasminogen activation in the presence of fibrin stimulator (Lys/Glu) (Lys/Glu (ratio of rates), single chain) [1] was 2 and the plasminogenolytic activity (PAU/mg) (PAU/mg (single chain)) [2] was 50.

B3: mt-PA6-E (enzyme)
chain: SYQGNSDCYFGQGSAYRGTHSLTESGASCLPWNSMILIGKVYTAQNGSAQALGLGKHNYCRNPDGDAKPWCHVLKNRRLTWEYCDVPSCSTCGLRQYSQPQFRIKGGLFADIASHPWQAAIFAKHRRSPGERFLCGGILISSCWILSAAHCFQERFPPHHLTVILGRTYRVVPGEEEQKFEVEKYIVHKEFDDDTYDNDIALLQLKSDSSRCAQESSVVRTVCLPPADLQLPDWTECELSGYGKHEALSPFYSERLKEAHVRLYPSSRCTSQHLLNRTVTDNMLCAGDTRSGGPQANLHDACQGDSGGPLVCLNDGRMTLVGIISWGLGCGQKDVPGVYTKVTNYLDWIRDNMRP
modifications: diglycosylated: alternate glycosylation consensus sequence at the amino acids surrounding position 48 (equivalent to amino acid 219 of t-PA) in Kringle 2 (claim 2: monoglycosylated at amino acid residue number 47), and the glycosylation consensus sequence within the Serine Protease domain
Work on B3 yielded a ratio of the rates of Lys- to Glu-plasminogen activation in the presence of fibrin stimulator (Lys/Glu) (Lys/Glu (ratio of rates), single chain) [1] of 2 and a plasminogenolytic activity (PAU/mg) (PAU/mg (single chain)) [2] of 59.

B4: Variant mt-PA6 (mt-PA6-V) (enzyme)
chain: B3 chain with Q12N, G47P
modifications: glycosylated at amino acids 276 and 12
In the case of B4, the ratio of the rates of Lys- to Glu-plasminogen activation in the presence of fibrin stimulator (Lys/Glu) (Lys/Glu (ratio of rates), single chain) [1] is reported as 1.4 and the plasminogenolytic activity (PAU/mg) (PAU/mg (single chain)) [2] is reported as 56.

B5: Primary mt-PA6 (mt-PA6-P) (enzyme)
chain: B3 chain with Q12N, G47P
modifications: glycosylated at amino acid 276 but not at amino acid 12
In the case of B5, the ratio of the rates of Lys- to Glu-plasminogen activation in the presence of fibrin stimulator (Lys/Glu) (Lys/Glu (ratio of rates), single chain) [1] is reported as 1 and the plasminogenolytic activity (PAU/mg) (PAU/mg (single chain)) [2] is reported as 87.
